From US20200199244A1 (published 2020) come the findings set out here.

The chains are these.
B1: BMS3h-217 (other)
VL: DIQMTQSPSSLSASVGDRVTITCRASHFIGTLLSWYQQKPGKAPKLLITYGSLLQSGVPSRFSGSGSGTDFTLTISSLQPEDFATYYCGQGVLWPATFGQGTKVEIKR
B2: BMS3h-217-2305 (other)
VL: DIQMTQSPSSLSASVGDRVTITCRASHFIGSLLSWYQVKPGKAPKLLITWASYLQSGVPSRFSGSGSGTDFTLTISSLQPEDFATYYCGQGVLWPATFGQGTTVEIKR
B3: BMS3h-217-7 (other)
VL: DIQMTQSPSSLSASVGDRVTITCRASHFIGSLLSWYQHKPGKAPKLLITYGSLLQSGVPSRFSGSGSGTDFTLTISSLQPEDFATYYCGQGVLWPATFGQGTKVEIKR
B4: BMS3h-217-9 (other)
VL: DIQMTQSPSSLSASVGDRVTITCRASHFIGTLLSWYQHKPGKAPKLLITYGSMLQSGVPSRFSGSGSGTDFTLTISSLQPEDFATYYCGQGVLWPATFGQGTKVEIKR
B5: BMS3h-217-30 (other)
VL: DIQMTQSPSSLSASVGDRVTITCRASHFIGTLLSWYQLKPGKAPKLLITYGSWLQSGVPSRFSGSGSGTDFTLTISSLQPEDFATYYCGQGVLWPATFGQGTKVEIKR
B6: BMS3h-217-31 (other)
VL: DIQMTQSPSSLSASVGDRVTITCRASHFIGTLLSWYQQKPGKAPKLLITYGSLLQSGVPSRFSGSGFGTDFTLTISSLQPEDFATYYCGQEVLWPATFGQGTKVEIKR
B7: BMS3h-217-17 (other)
VL: DIQIIQSPSSLSASVGDRVTITCRASHFIGTLLSWYQQKPGKAPKLLITYGSLLQSGVPSRFSGSGSGTDFTLTISSLQPEDFATYYCGQGVLWPPTFGQGTKVEIKR
B8: BMS3h-193-29 (other)
VL: DIQMTQSPSSLSASVGDRVTITCRASQTIERRLNWYQQKPGKAPKLLIYLATRLQSGVPSRFSGSGSGTDFTLTISSLQPEDFATYYCHQYESPPLTFGQGTKVEIKR
B9: BMS3h-202-5 (other)
VH: EVQLLESGGGLVQPGGSLRLSCAASGFTFPTAEMLWVRQAPGKGLEWVSSISASGGSTYYADSVKGRFTISRDNSKNTLYLQMNSLRAEDTAVYYCAKEPVSYVATFDYWGQGTLVTVSS
B10: BMS3h-202-11 (other)
VH: EVQLLESGGGLVQPGGSLRLSCAASGFTFPTAEMLWVRKAPGKGLEWVSSISASGGSTYYADSVKGRFTISRDNSKNTLYLQMNSLRAEDAAVYYCAKEPVSYVATFDYWGQGTLVTVSS
B11: BMS3h-202-10 (other)
VH: EVQLLESGGGLVQPGGSLRLSCAASGFTFPTAEMLWVRQAPGKGLEWVSSISASGGSTYYADSVKGRFTISRDNSKNTLYLQMNSLRAEDTAVYYCAKEPVYYVATFDYWGQGTLVTVSS
B12: BMS3h-198-1 (other)
VH: EVQLLESGGGLVQPGGSLRLSCAASGSTIAGYEMWWVRQAPGKGLERVSAISGSGGSTYYADSVKGRFTISRDDSKNTLYLQMNSLRAEDTAVYYCARDPYSFDYWGQGTLVTVSS
B13: BMS3h-198-24 (other)
VH: EVQLLESGGGLVQPGGSLRLSCAASGFTFAGYEMWWVRQAPGKGLERVSAISGSGGSTYYADSVKGRFTISRDDSKNTLYLQMNSLRAEDTAVYYCAKEPYSFDSWGQGTLVTVSS
B14: BMS3h-198-2 (other)
VH: EVQPLESGGGLVQPGGSLRLSCAASGFTFAGYEMWWVRQAPGKGLERISAISGSGGSTYYADSVKGRFTISRDDSKNTLYLQMNSLRAEDTAVYYCARDPYSFDYWGQGTLVTVSS
B15: BMS3h-198-5 (other)
VH: EVQLLESGGGLVQPGGSLRLSCAASGFTFAGYEMWWVRQAPGKGLERVSAISGSGGSTYYADSVKGRFTISRDDSKNTLYLQMNSLRAEDTAVYHCAKEPYSYDYWGQGTLVTVSS
B16: BMS3h-198-19 (other)
VH: EVQLLESGGGLVQPGGSLRLSCAASGFTFAGYELWWVRQAPGKGLERVSAISGSGGSTYYADSVKGRFTISRDDSKNTLYLQMNSLRAEDTAVYYCARDPYSFDYRGQGTLVTVSS
B17: BMS3h-198-28 (other)
VH: EVQLLESGGGLVQPGGSLRLSCAASGFTFAGYEMWWFRQAPGKGLERVSAISGSGGSTYYADSVKGRFTISRDDSKNTLYLQMNSLRAEDTAVYYCAKDPYSFDNWGQGTLVTVSS
B18: BMS3h-38 (other)
VH: EVQLLESGGGLVQPGGSLRLSCAASGFTFEEEEMIWVRQAPGKGLEWVSAISGSGGSTYYADSVKGRFTISRDNSKNTLYLQMNSLRAEDTAVYYCAKEPFRFDYWGQGTLVTVSS
notes: domain antibody (dAb): single human VH domain
B19: BMS3h-198 (other)
VH: EVQLLESGGGLVQPGGSLRLSCAASGFTFAGYEMWWVRQAPGKGLERVSAISGSGGSTYYADSVKGRFTISRDDSKNTLYLQMNSLRAEDTAVYYCAKDPYSFDYWGQGTLVTVSS
notes: as for B18
B20: BMS3h-56 (other)
VH: EVQLLESGGGLVQPGGSLRLSCAASGFTFRDYEMWWVRQAPGKGLERVSAINPQGTRTYYADSVKGRFTISRDNSKNTLYLQMNSLRAEDTAVYYCAKLPFIFDYWGQGTLVTVSS
notes: as for B18
B21: BMS3h-41 (other)
VH: EVQLLESGGGLVQPGGSLRLSCAASGFTFTEYEMIWVRQAPGKGLEWVSSISGNGANTYYADSVKGRFTISRDNSKNTLYLQMNSLRAEDTAVYYCAKEPLRFDYWGQGTLVTVSS
notes: as for B18
B22: BMS3h-37 (other)
VH: EVQLLESGGGLVQPGGSLRLSCAASGFTFEWYEMQWVRQAPGKGLEWVSAISGDGYRTYYADSVKGRFTISRDNSKNTLYLQMNSLRAEDTAVYYCAKELGYFDYWGQGTLVTVSS
notes: as for B18
B23: BMS3h-37-9 (other)
VH: EVQLLESGGGLVQPGGSLRLSCVASGFTFEWYEMQWVRQAPGNGLEWISAISGDGYRTYYADSVKGRFTISRDNSKNTLYLQMNSLRAEDTAVYYCAKELGYFDYWGRGTLVTVSS
notes: as for B18
B24: BMS3h-131-2 (other)
VL: DIQMTQSPSSLSASVGDRVTITCRADSSILWALAWYQQKPGKAPKLLIESSSGLQSGVPSRFSGSGSGTDFTLTISSLQPEDFATYYCVQNAVWPGTFGQGTKVEIKR
notes: domain antibody (dAb): single human V kappa domain
B25: BMS3h-193-25 (other)
VL: DIQMTQSPSSLSASVGDRVTITCRASQTIERRLNWYQQKPGKAPRLLIYLATRLQSGVPSRFSGSGSGTDFTLTISSLQPEDFATYYCHQYESPPLTFGQGTKVEIKR
notes: as for B24
B26: BMS3h-202-5 (other)
VH: EVQLLESGGGLVQPGGSLRLSCAASGFTFPTAEMLWVRQAPGKGLEWVSSISASGGSTYYADSVKGRFTISRDNSKNTLYLQMNSLRAEDTAVYYCAKEPVSYVATFDYWGQGTLVTVSS
notes: as for B18
B27: BMS3h-56-7 (other)
VH: EVQLLESGGGLVQPGGSLRLSCAASGFTFRDYEMWWVRQAPGKGLERVSAINPQGTRTYYADSVKGRFTISRDNSKNTLYLQMNSLRAEDTSVYHCAKPPFIFGDWGPGTLVTVSS
notes: as for B18
B28: BMS3h-56-9 (other)
VH: EVQLLESGGGLVQPGGSLRLSCAASGFTFRDYEMWWVRQAPGKGLERVSAINPQGTRTYYADSVMGRFTISRDNSKNTLYLQMNSLRAEDTAVYYCAKLPFMFDDRGQGTLVTVSS
notes: as for B18
B29: BMS3h-43-3 (other)
VH: EVQLLESGGGLVQPGGSLRLSCTASGFTFNMYEMSWVRQAPGKGLEWVSGISRRGFTTYYADSVKGRFTISRDNFKNTLYLQMNSLRAEDTAVYYCAKEPITYDMRYARFDYGGQGTLVTVSS
notes: as for B18

human CD40, sequence (P25942 21-277 limits assumed): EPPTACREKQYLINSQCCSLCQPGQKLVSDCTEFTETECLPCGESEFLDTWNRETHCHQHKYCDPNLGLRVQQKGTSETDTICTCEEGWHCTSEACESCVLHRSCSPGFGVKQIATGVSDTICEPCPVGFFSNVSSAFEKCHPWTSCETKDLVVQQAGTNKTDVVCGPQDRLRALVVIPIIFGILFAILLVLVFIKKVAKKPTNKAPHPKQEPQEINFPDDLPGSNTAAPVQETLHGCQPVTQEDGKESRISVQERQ

The first experiment has as its target human CD40 (human, UniProt P25942 21-277). Kind of experiment: cell-based or functional assay.
As for B1, the “hIZCD40L-driven Human B Cell Proliferation EC50” value was 3200 nM. Same read-out and setting: in the case of B2 it was 11 nM; in that of B3, 220 nM. On the same count and under the same terms, in the case of B4 it was 380 nM.

For the molecule B5, the “CHO-hCD40L-driven DC Activation IL-12 EC50” value was above 7700 nM and the “hIZCD40L-driven Human B Cell Proliferation EC50” value was 80 nM. For the molecule B6, the “hIZCD40L-driven Human B Cell Proliferation EC50” value was above 700 nM. On the same count and under the same terms, in the case of B7 it was 1950 nM; in that of B8, 1380 nM.

As to B9, the “hIZCD40L-driven Human B Cell Proliferation EC50” value turned out to be 6500 nM. On the same count and under the same terms, in the case of B10 it was 201 nM; in that of B11, 289 nM. Same read-out and setting: in the case of B12 it was 64 nM; in that of B13, 34 nM; in that of B14, 207 nM. With B15, the “hIZCD40L-driven Human B Cell Proliferation EC50” value was 9 nM.

On to B16, for which the “hIZCD40L-driven Human B Cell Proliferation EC50” value is 19 nM. The same measure, in the same setting: in the case of B17 it was 20 nM.

The target in another experiment is T1, biotinylated human CD40 (BMS) (human, UniProt P25942 21-193, limits assumed, biotinylated (sites not given)).
T1 construct: Ligand immobilised on the streptavidin BIAcore chip
T1 sequence (P25942 21-193 limits assumed): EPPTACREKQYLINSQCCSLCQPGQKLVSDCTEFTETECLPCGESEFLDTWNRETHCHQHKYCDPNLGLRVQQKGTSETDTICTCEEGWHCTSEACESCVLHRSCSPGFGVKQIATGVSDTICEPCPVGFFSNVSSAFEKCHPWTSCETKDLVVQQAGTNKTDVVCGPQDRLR
Briefly: BIAcore SPR, immobilised biotinylated human CD40, 1:1 fit. In general terms: SPR reads the build-up and loss of mass on a sensor chip optically.
B18 displayed a dissociation constant (Kd) of 300 nM, an off-rate (koff) of 0.0062 s⁻¹ and an association rate constant (kon) of 21000 M⁻¹ s⁻¹. The like results for B19 were, in that order, 240 nM, 0.00038 s⁻¹ and 1600 M⁻¹ s⁻¹. The like results for B20 were, in that order, 180 nM, 0.004 s⁻¹ and 23000 M⁻¹ s⁻¹. The corresponding values for B21 are 840 nM, 0.0083 s⁻¹ and 9900 M⁻¹ s⁻¹.

The molecule B22 gave a Kd of 190 nM, a koff of 0.0036 s⁻¹ and a kon of 19000 M⁻¹ s⁻¹.

Another experiment concerns the target T1, biotinylated human CD40 (BMS). The description is as above. The source holds these as a separate data set.
Protocol: A BIAcore™ 3000 instrument (GE Healthcare) was used to analyze the binding kinetics of CD40-specific dAbs to CD40. […] A second flow cell without any ligand immobilized served as a reference flow-cell for inline referencing. An appropriate doubling dilution series of each dAb to be analyzed was prepared in HBS-EP buffer (0.01 M HEPES pH 7.4 with 0.15 M NaCl, 3 mM EDTA and 0.005% v/v Surfactant P20, GE Healthcare). One hundred and eighty microlitres of each dAb were injected in duplicate using the instrument's KINJECT function. Each dAb was injected across the CD40-immobilised and reference flow-cells in series with inline subtraction of the signal from the reference cell. The experiment was performed at 25° C. and a flow rate of 30 μl/min of HBS-EP. After each injection had been completed, the dAb was allowed to dissociate from the ligand in buffer for 300 s before regeneration with a 10 μl injection of 10 mM glycine pH 2.0. A reference injection of HBS-EP buffer blank (containing no analyte) was also injected under the same conditions, to serve as a second reference for subtraction from each analyte trace. BIAevaluation 4.1 software (GE Healthcare) was used to subtract both the reference flow-cell trace and the buffer blank trace from each analyte trace. The same software was used to perform a simultaneous, global fit of a 1:1 (Langmuir) kinetic model to the association and dissociation phases of the analyte dilution series traces.
On to B23, for which binding was characterised by a dissociation constant (Kd) of 12 nM, the koff was 0.00018 s⁻¹ and the kon was determined as 15000 M⁻¹ s⁻¹. B24 yielded a Kd of 21 nM, a koff of 0.0017 s⁻¹ and a kon of 79000 M⁻¹ s⁻¹. The corresponding values for B25 are 81 nM, 0.037 s⁻¹ and 460000 M⁻¹ s⁻¹. The corresponding values for B26 are 300 nM, 0.0013 s⁻¹ and 4400 M⁻¹ s⁻¹. The like results for B27 were, in that order, 3.5 nM, 0.00047 s⁻¹ and 130000 M⁻¹ s⁻¹. B28 yielded a Kd of 2.6 nM, a dissociation rate constant (koff) of 0.00039 s⁻¹ and a kon of 150000 M⁻¹ s⁻¹. The corresponding values for B29 are 19 nM, 0.00059 s⁻¹ and 31000 M⁻¹ s⁻¹.

In general, Kd refers to the concentration at which binding is half-saturated. Low readings indicate a tighter complex, high ones a looser complex. A word on the koff: it is the first-order rate constant of dissociation. Read a low koff as slow dissociation. As usually defined, the kon is a measure of how fast the partners come together. A low value points to slower complex formation.
